The results in this text go back to patent publication US20180194862A1 (AbbVie / Abbott, published 2018).

For orientation: Kd means the constant that tells how readily two partners part at equilibrium. For orientation: koff means the first-order rate constant of dissociation. A higher koff goes with a short-lived complex. The kon is the rate constant with which the complex forms. A higher kon goes with fast association. The EC50 is the concentration giving half of the maximal effect. The low end stands for higher potency in that assay, the high end for lower potency in that assay.

One test deals with T1, cynomolgus mesothelin (cynomolgus).
T1 construct: also called cynoMSLN; Cyno MSLN
In words: SPR. On the technique in general: SPR reads the build-up and loss of mass on a sensor chip optically.

The target of the next test is T2, human mesothelin (human, UniProt Q13421 296-580, limits assumed).
T2 construct: also called Human MSLN
Description: SPR.

The target of test [1] is T3, mesothelin on cells (endogenous on SN12C, OVCAR3, SW1990); HEK293 cells expressing cell-surface human … (human, UniProt Q13421 296-598).
T3 construct: whole, on cells; also called cell-surface MSLN
In words: FACS, SN12C (CA125-). The method, then:
(§1) The binding of anti-mesothelin affinity matured variants was measured by FACS on the ovarian cancer cell line OVCAR3, the pancreatic cancer cell line SW1990, and the renal cancer cell line SN12C. Both OVCAR3 and SW1990 express CA125, but CA125 expression on SN12C cells was not detected.
A general note: Flow cytometry measures light scatter and fluorescence of single cells or particles in a stream.

Test [2] has as its target T3, mesothelin on cells (endogenous on …). In words: FACS, OVCAR3 (CA125+). How it is done:
as §1

In another test the target is T4, mouse CD40 (mouse, UniProt P27512 20-193, limits assumed).
T4 construct: also called murine CD40
T4 sequence (looked up): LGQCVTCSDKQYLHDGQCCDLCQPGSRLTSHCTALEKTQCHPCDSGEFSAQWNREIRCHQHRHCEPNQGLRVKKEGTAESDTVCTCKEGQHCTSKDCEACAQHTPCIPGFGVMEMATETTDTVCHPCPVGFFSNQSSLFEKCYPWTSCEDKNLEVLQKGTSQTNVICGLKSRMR
Description: FACS.

The target of another test is T5, dog CD40 (dog, UniProt Q7YRL5 21-194, limits assumed).
T5 sequence (looked up): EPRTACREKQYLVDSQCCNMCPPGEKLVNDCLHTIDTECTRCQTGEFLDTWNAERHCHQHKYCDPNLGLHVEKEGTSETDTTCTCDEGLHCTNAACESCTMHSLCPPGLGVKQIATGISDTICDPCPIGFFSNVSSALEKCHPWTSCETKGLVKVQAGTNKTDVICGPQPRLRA
In words: FACS.

For test [3], the target named is T6, human CD40 on cells (HEK293 stable transfectants, HEK-Blue CD40 cells, human B cells, monocytic cells, … (human, UniProt P25942 21-277)). Description: cell-based or functional assay.
Test [4] has as its target T7, soluble form of the extracellular domain of human CD40 (Creative BioMart) (human, UniProt P25942 21-193).
T7 construct: Bought
Description: SPR, Ab captured. The method, then:
CD40 binding kinetics was analyzed by surface plasmon resonance assay with a Biacore T200 instrument (Table 1-5). Briefly, a goat anti-mouse Fc antibody (Pierce) or goat anti-human Fc (Pierce) was immobilized on a CM5 sensor chip, followed by capture of the anti-CD40 antibodies on the test surface. Subsequently, the soluble form of the extracellular domain of human CD40 (Creative BioMart) or cynomolgus (cyno) CD40 (Creative BioMart) was injected, and the binding and dissociation were measured.

Test [5] addresses T6, human CD40 on cells (HEK293 stable …). In words: cell-based or functional assay. This is another data set of the same source.

T6 sequence (P25942 21-277 limits assumed): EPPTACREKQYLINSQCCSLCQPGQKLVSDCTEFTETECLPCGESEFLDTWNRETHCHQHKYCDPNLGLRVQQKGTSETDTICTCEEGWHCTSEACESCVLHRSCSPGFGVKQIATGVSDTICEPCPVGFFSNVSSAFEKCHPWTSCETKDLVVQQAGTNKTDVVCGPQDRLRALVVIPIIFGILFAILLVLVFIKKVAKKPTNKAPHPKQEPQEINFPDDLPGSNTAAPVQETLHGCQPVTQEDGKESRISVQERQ
T7 sequence (P25942 21-193 limits assumed): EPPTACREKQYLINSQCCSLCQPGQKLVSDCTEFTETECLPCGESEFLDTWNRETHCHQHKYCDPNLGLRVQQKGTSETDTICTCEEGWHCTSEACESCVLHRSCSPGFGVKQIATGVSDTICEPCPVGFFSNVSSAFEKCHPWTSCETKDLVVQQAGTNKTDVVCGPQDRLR
T2 sequence (Q13421 other isoform, or with tags, fused parts or gaps limits assumed): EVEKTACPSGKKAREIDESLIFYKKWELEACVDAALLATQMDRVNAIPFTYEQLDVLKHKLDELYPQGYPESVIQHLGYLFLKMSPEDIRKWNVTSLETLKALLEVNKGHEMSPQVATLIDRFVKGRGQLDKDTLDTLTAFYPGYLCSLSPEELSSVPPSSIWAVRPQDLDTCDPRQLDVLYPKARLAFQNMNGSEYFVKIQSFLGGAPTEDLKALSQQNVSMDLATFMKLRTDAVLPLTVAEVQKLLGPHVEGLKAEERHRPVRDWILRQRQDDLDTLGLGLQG
T3 sequence (Q13421 other isoform, or with tags, fused parts or gaps limits assumed): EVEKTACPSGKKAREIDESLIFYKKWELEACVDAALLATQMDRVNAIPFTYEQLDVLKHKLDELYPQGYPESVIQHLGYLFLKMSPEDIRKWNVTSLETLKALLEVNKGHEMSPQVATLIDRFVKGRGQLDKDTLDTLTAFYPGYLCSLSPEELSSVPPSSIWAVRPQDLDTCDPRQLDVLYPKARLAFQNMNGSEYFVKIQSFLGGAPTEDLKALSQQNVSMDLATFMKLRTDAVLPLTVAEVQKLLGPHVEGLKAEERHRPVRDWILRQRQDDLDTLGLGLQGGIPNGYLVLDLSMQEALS

B1: HuAb17 (antibody, V domains shown)
VH: EVQLVQSGAEVKEPGASVKVSCKASGDTFNRYYVHWARQAPGQGLEWMGIINPSGVSTTYAQKFQGRVTMTRDTPTNTVYMELGSLRPEDTAVYFCAESRGSGYNYFAMDVWGQGTLVTVSS
VL: SYELTQPPSVSVSPGQTADITCSGDKLGDKYASWYQQKPGQSPVLVIYQDNRRPSGIPERFSGSNSGNTATLTISGTQAMDEADYYCQAWDSDTYVFGPGTKVTVL
notes: fully human antibody
In the case of B1, in the test with cynomolgus mesothelin, the Kd is 8.1 nM, the koff was 0.00013 s⁻¹ and the kon was found to be 15000 M⁻¹ s⁻¹. Moreover, in the test with human mesothelin, the affinity, expressed as Kd, was 2.6 nM; the koff was 3.2e-05 s⁻¹; the kon turned out to be 12000 M⁻¹ s⁻¹. In [1], the EC50 worked out at 2.74 µg/mL and the “Maximum binding (MFI)” value was 11000 MFI. In test [2], a half-maximal response (EC50) required 2.9 µg/mL and the “Maximum binding (MFI)” value came out at 1640 MFI.

B2: HuAM13 (antibody, V domains shown)
VH: EVQLVQSGAEVKKPGASVKVSCKASGDTFNRYYVQWVRQAPGQGLEWMGIINPSGVSTTYAQKFQGRVTMTRDTSTSTVYMELSSLRSEDTAVYYCAETRGSGFNYFGMDVWGQGTLVTVSS
VL: SYELTQPPSVSVSPGQTASITCSGDKLGDKYASWYQQKPGQSPVLVIYQDNRRPSGIPERFSGSNSGNTATLTISGTQAMDEADYYCQVWDSDTYVFGTGTKVTVL
notes: fully human antibody
Take B2: the EC50 in test [1] turned out to be 0.09 µg/mL; in [2] it was 0.7 µg/mL. The entries for the “Maximum binding (MFI)” value in [1] and in test [2] were 9870 MFI and 3670 MFI, respectively.

B3: HuAM16 (antibody, V domains shown)
VH: EVQLVQSGAEVKKPGASVKVSCKASGDTFNRYYVQWVRQAPGQGLEWMGIINPSGVSTTYAQKFQGRVTMTRDTSTSTVYMELSSLRSEDTAVYYCAETRGSGFNYFGMDVWGQGTLVTVSS
VL: SYELTQPPSVSVSPGQTASITCSGDKLGDKYASWYQQKPGQSPVLVIYQDNRRPSGIPERFSGSNSGNTATLTISGTQAMDEADYYCQAWDSDTYVFGTGTKVTVL
notes: fully human antibody
In the case of B3, in the test with cynomolgus mesothelin, the Kd was 4.1 nM, the koff was 0.00019 s⁻¹ and the kon was 47000 M⁻¹ s⁻¹. In the test with human mesothelin, this molecule gave a Kd of 0.46 nM, a koff of 2.4e-05 s⁻¹ and a kon of 52000 M⁻¹ s⁻¹. Further, in test [1], the EC50 was found to be 0.08 µg/mL and the “Maximum binding (MFI)” value was found to be 9540 MFI. For the same molecule, in [2], the EC50 came out at 0.6 µg/mL and the “Maximum binding (MFI)” value came to 3610 MFI.

B4: HuAM11 (antibody, V domains shown)
VH: EVQLVQSGAEVKKPGASVKVSCKASGDTFKRYYMHWVRQAPGQGLEWMGIINPSGVSTTYAQKFQGRVTMTRDTSTSTVYMELSSLRSEDTAVYYCAEVRGSGFNYFGMDVWGQGTLVTVSS
VL: SYELTQPPSVSVSPGQTASITCSGDKLGDKYASWYQQKPGQSPVLVIYQDNRRPSGIPERFSGSNSGNTATLTISGTQAMDEADYYCQVWDSDTYVFGTGTKVTVL
notes: fully human antibody
Regarding B4, in test [1], the EC50 worked out at 0.04 µg/mL and the “Maximum binding (MFI)” value was determined as 7530 MFI. In addition, in test [2], the midpoint of the response, the EC50, lay at 0.7 µg/mL and the “Maximum binding (MFI)” value was determined as 3430 MFI.

B5: HuAM14 (antibody, V domains shown)
VH: EVQLVQSGAEVKKPGASVKVSCKASGDTFKRYYMHWVRQAPGQGLEWMGIINPSGVSTTYAQKFQGRVTMTRDTSTSTVYMELSSLRSEDTAVYYCAEVRGSGFNYFGMDVWGQGTLVTVSS
VL: SYELTQPPSVSVSPGQTASITCSGDKLGDKYASWYQQKPGQSPVLVIYQDNRRPSGIPERFSGSNSGNTATLTISGTQAMDEADYYCQAWDSDTYVFGTGTKVTVL
notes: fully human antibody
Take B5: in [1], the response was half-maximal at 0.09 µg/mL (EC50) and the “Maximum binding (MFI)” value is 9800 MFI. For the same molecule, in test [2], a half-maximal effect (EC50) was put at 0.7 µg/mL and the “Maximum binding (MFI)” value was determined as 3370 MFI.

B6: HuAM12 (antibody, V domains shown)
VH: EVQLVQSGAEVKKPGASVKVSCKASGDTFHRYYVHWVRQAPGQGLEWMGIINPSGVSTTYAQKFQGRVTMTRDTSTSTVYMELSSLRSEDTAVYYCAEVRGSGFNYFGMDVWGQGTLVTVSS
VL: SYELTQPPSVSVSPGQTASITCSGDKLGDKYASWYQQKPGQSPVLVIYQDNRRPSGIPERFSGSNSGNTATLTISGTQAMDEADYYCQAWDSDTYVFGTGTKVTVL
notes: fully human antibody
On to B6, for which, in test [1], the EC50 was 0.09 µg/mL and the “Maximum binding (MFI)” value was determined as 9630 MFI. Besides, in test [2], the 50% effective concentration (EC50) is 0.8 µg/mL and the “Maximum binding (MFI)” value worked out at 3270 MFI.

B7: HuAM5 (antibody, V domains shown)
VH: EVQLVQSGAEVKKPGASVKVSCKASGDTFNRYYVHWVRQAPGQGLEWMGIINPSGVSTTYAQKFQGRVTMTRDTSTSTVYMELSSLRSEDTAVYYCAEVRGSGYNYFAMDVWGQGTLVTVSS
VL: SYELTQPPSVSVSPGQTASITCSGDKLGDKYASWYQQKPGQSPVLVIYQDNRRPSGIPERFSGSNSGNTATLTISGTQAMDEADYYCQAWDSDTYVFGTGTKVTVL
notes: fully human antibody
In the case of B7, in the test with cynomolgus mesothelin, the Kd is 4.9 nM, the koff was found to be 0.0001 s⁻¹ and the kon turned out to be 20000 M⁻¹ s⁻¹. In addition, in the test with human mesothelin, the Kd is ≤ 0.46 nM, the koff was ≤ 1e-05 s⁻¹ and the kon was 23000 M⁻¹ s⁻¹. In test [1], the EC50 turned out to be 0.09 µg/mL and the “Maximum binding (MFI)” value came out at 10000 MFI. In test [2], the EC50 amounted to 0.7 µg/mL and the “Maximum binding (MFI)” value came out at 3690 MFI.

B8: huAb6-2 (antibody, human IgG1, V domains shown)
VH: EVQLVQSGAEVKKPGSSVKVSCKASGYTFTSYWMHWVRQAPGQGLEWIGNIDPSNGETHYNQKFKDRVTITVDKSTSTAYMELSSLRSEDTAVYYCARERIYYSGSTYDGYFDVWGQGTTVTVSS
VL: DIQLTQSPSFLSASVGDRVTITCSASSSLSYMHWYQQKPGKSPKRWIYDTSKLASGVPSRFSGSGSGTEYTLTISSLQPEDFATYYCQQWSSNPWTFGGGTKVEIK
notes: human IgG1, kappa
B8: the binding result with mouse CD40 is given as “no binding”. Also, in the test with dog CD40, the binding result was “no binding”. In addition, in test [3], the “Maximal activation (OD655)” value came to 0.2 OD655 and the “NF-κB activation EC50, HEK293 CD40 NFκB reporter cells” value (from here on “NF-κB activation EC50”) came out at 1.21 µg/mL.

B9: huAb6-3 (antibody, human IgG1, V domains shown)
VH: EVQLVQSGAEVKKPGSSVKVSCKASGYTFTSYWMHWVRQAPGQGLEWIGNIDPSNGETHYAQKFQGRVTITVDKSTSTAYMELSSLRSEDTAVYYCARERIYYSGSTYDGYFDVWGQGTTVTVSS
VL: DIQLTQSPSFLSASVGDRVTITCSASSSLSYMHWYQQKPGKSPKRWIYDTSKLASGVPSRFSGSGSGTEYTLTISSLQPEDFATYYCQQWSSNPWTFGGGTKVEIK
notes: human IgG1, kappa
In the case of B9, in the test with mouse CD40, the binding result was “no binding”. For the same molecule, the binding result with dog CD40 is reported as “no binding”. For the same molecule, in test [3], the “Maximal activation (OD655)” value was 0.32 OD655 and the “NF-κB activation EC50” value came out at 4.31 µg/mL.

B10: huAb6-1 (antibody, human IgG1, V domains shown)
VH: EVQLVQSGAEVKKPGSSVKVSCKASGYTFTSYWMHWVRQAPGQGLEWIGNIDPSNGETHYNQKFKDRATLTVDKSTSTAYMELSSLRSEDTAVYYCARERIYYSGSTYDGYFDVWGQGTTVTVSS
VL: DIQLTQSPSFLSASVGDRVTITCSASSSLSYMHWYQQKPGKSPKRWIYDTSKLASGVPSRFSGSGSGTEYTLTISSLQPEDFATYYCQQWSSNPWTFGGGTKVEIK
notes: human IgG1 heavy chain constant region, kappa light chain constant region
On to B10, for which, in the test with mouse CD40, the binding result was “no binding”. Further, the binding result with dog CD40 is on record as “no binding”. In addition, in test [3], the “Maximal activation (OD655)” value stood at 0.26 OD655 and the “NF-κB activation EC50” value is 1.09 µg/mL.

B11: huAb8-3 (antibody, human IgG1, V domains shown)
VH: EVQLVQSGAEVKKPGSSVKVSCKASGYTFTDYYINWVRQAPGQGLEWIGWIFPGSGSVYCNEQFKGRVTITVDKSTSTAYMELSSLRSEDTAVYYCASSLGKFAYWGQGTLVTVSS
VL: DIQMTQSPSSLSASVGDRVTITCKASQSVVTAVAWYQQKPGKSPKLLIYSASNRYTGVPSRFSGSGSGTDFTLTISSLQPEDFATYFCQQYSSYPYTFGGGTKVEIK
notes: human IgG1, kappa
In the case of B11, the binding result with mouse CD40 was “no binding”. In addition, the binding result with dog CD40 is recorded as “no binding”. In [3], the “Maximal activation (OD655)” value was 0.46 OD655 and the “NF-κB activation EC50” value was 0.07 µg/mL.

B12: AD163.10.7 (antibody, V domains shown)
VH: LVQPGGSLSLSCAASGFTFSDYYMSWVRQPPGKALEWLGFIRNKANGYTTEFSASVKGRFTISRDNSQSILYLQMNALRAEDSATYYCARYGGLRQGWYFDVWGTGTTVTVSS
VL: DIQMTQTTSSLSASLGDRVTISCRASQDIRNYLNWYQQKPDGTVKLLIYYTSRLHSGVPSRFSGSGSGTDYSLTISNLEQEDIATYFCQQGKTLPWTFGGGSKLEMK
notes: mouse hybridoma antibody; also called muAb4
In the case of B12, in test [4], the Kd came out at 76 nM, the koff is 0.17 s⁻¹ and the association rate constant (kon) amounted to 2.3e+06 M⁻¹ s⁻¹. In addition, in [5], the “Monocyte activation (THP1-Xblue, OD655)” value turned out to be 0.16 OD655 and the “moDC activation (IL-12p70)” value came to 1320 pg/mL.
